Experiment: In vivo biodistribution after intravenous administration (IVIS)
Parameters: species or system C57BL/6 mice
Conditions: 5 min (0.08 hour) after administration
Procedure: (FIG. 3A) IVIS images of excised mouse lungs 5 min (0.08 hours) after the administration of OVA protein only and OVA/Erythrocyteplex. […] OVA was used for the fluorescence signal. (FIG. 3B) Biodistribution of OVA only and OVA/Erythrocyteplex 5 min after intravenous (IV) administration. (FIG. 3C) Biodistribution of OVA only and OVA/Erythrocyteplex 6 hours after IV administration. (FIG. 3D) Biodistribution of OVA only and OVA/Erythrocyteplex 24 hours after IV administration. (FIG. 3E) Lung to liver ratio of OVA delivered by the control counterpart and OVA/Erythrocyteplex throughout the entire measurement window. (FIG. 3F) Remaining OVA delivered by Erythrocyteplex through the time after 24 hours post-injection. […] Variation is represented by SE (error bars) from three independent replicates for all data points. (FIG. 3G) Confocal florescence microscopy images of lung vascular capillary sections 5 min. […]
Female 50-56 days old C57BL/6 mice (n=3-6 per group) were administered intravenously using a with OVA-Erythrocyteplex coated with 30 ug/mL OVA. […] Each organ was placed in a 6 well tissue culture plate (Falcon); blood (50 μL) was placed in a heparinized microcapillary tube (Drummond Scientific) and far red fluorescence signal for each organ was imaged using Perkin Elmer IVIS small animal imaging system. Far red signals were quantified using LivingImage software.

B1: free OVA: free ovalbumin protein, control counterpart (protein, UniProt P01012 2-386, looked up)
Ovalbumin: GSIGAASMEFCFDVFKELKVHHANENIFYCPIAIMSALAMVYLGAKDSTRTQINKVVRFDKLPGFGDSIEAQCGTSVNVHSSLRDILNQITKPNDVYSFSLASRLYAEERYPILPEYLQCVKELYRGGLEPINFQTAADQARELINSWVESQTNGIIRNVLQPSSVDSQTAMVLVNAIVFKGLWEKAFKDEDTQAMPFRVTEQESKPVQMMYQIGLFRVASMASEKMKILELPFASGTMSMLVLLPDEVSGLEQLESIINFEKLTEWTSSNVMEERKIKVYLPRMKMEEKYNLTSVLMAMGITDVFSSSANLSGISSAESLKISQAVHAAHAEINEAGREVVGSAEAGVDAASVSEEFRADHPFLFCIKHIATNAVLFFGRCVSP
  signal in the liver: strong signal intensities in the liver

— patent US12692514B2, “Living cells engineered with polyphenol-functionalized biologically active nanocomplexes” (PRESIDENT AND FELLOWS OF HARVARD COLLEGE, priority 2020, dated 2026)
